Measured values taken from the supplement of paper PMC9170038.

System: MS2 coat protein
Test: apparent KD of MS2 coat protein; designed switch direction (-1 OFF switch, 1 ON switch): 1; higher = weaker reporter binding
In short: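 The apparent KD reported per design is the median over clusters of curve fits to normalised cluster fluorescence. The RNA switches were transcribed on Illumina chips by stalled E. coli RNA polymerase. SNAP-549-labelled MS2 coat protein was titrated from 0.7 or 1.5 nM, doubling up to 3 µM, in Tris-HCl pH 7.5 buffer containing KCl, MgCl2, BSA, DTT, tRNA and Tween-20, with no input, 200 uM small-molecule ligand, or an oligonucleotide input.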

[1] = input ligand: microRNA oligo, concentration not stated
[2] = Eterna round: R95, input ligand: FMN 200 uM
[3] = Eterna round: R95, input ligand: microRNA oligo, concentration not stated
[4] = Eterna round: R95, input ligand: none

Sequence	apparent KD of MS2 coat protein (input ligand: FMN 200 uM) [nM]	apparent KD of MS2 coat protein [1] [nM]	apparent KD of MS2 coat protein (input ligand: none) [nM]	apparent KD of MS2 coat protein [2] [nM]	apparent KD of MS2 coat protein [3] [nM]	apparent KD of MS2 coat protein [4] [nM]
AGUCCAGCCUGAGCUGGACAAAUGCUUGUACAUGAGGAUCACCCAUGUAUGUACAAGCUUUUUGCUCGUCUUAAUAA [JL zipper 68] (Eterna round: R96, puzzle: Sensor for hsa-mir-208a)	263	18.2	223	–	–	–
CACCCAAAGGAAGGAUAUAGGGACUCGAGGACAACAUGAGGAUCACCCAUGUCCCGCCAUCGGCCUUAGAAGGUCCAAGGGAAC [Eternabot solution 7] (Eterna round: R96, puzzle: Same State NG 2)	18.8	17.1	21.8	–	–	–
AGCUUGUGGGUAGGAUAUUUAGGAUAUGCGGAAGACUAAGUCUGUAGGUCACCUAACGCAGAAGGAGAGAAGGACCCUUCAGCA [pwkr ssNG2 2FMN + F9.30] (Eterna round: R96, puzzle: Same State NG 2)	353	21.1	91.3	–	–	–
AAACGGCCGAACGGAGGGCCACAUGAGGAUCACCCAUGUACAUAGGAUAUCACGCCAACGAAGCGUGAGAAGGGUGAUUAAAAC [Anriusxees] (Eterna round: R96, puzzle: Same State NG 3)	341	4.64	104	–	–	–
GUUACAUGAGGAUCACCCAUGUAUGUGUGGGAGUAAGUGUCUUAGGAUAUCUAUAAUUUAAAUUAAGAGAAGGAAGAUUGUUGU [JMF's solution 10] (Eterna round: R96, puzzle: Same State NG 3)	121	69.4	115	–	–	–
UGGUACAUGAGAGGAUAUGGGUAGAUGACAUGAGGAUCACCCAUGUUAAAGUCCGAAAGGACAUCCUAGAAGGCUCAUGUACCU [MOD of JL SSNG1 3.99] (Eterna round: R96, puzzle: Same State NG 2)	11	27	27.7	–	–	–
AUAUGAGAAGCAGGAUAUGUGAAAAAAAAACAUACAGAAGGGUUUAUGGAAAAACAUGAGGAUCACCCAUGUUCUUUGUGAUGA [AK SSNG1-V2-1] (Eterna round: R96, puzzle: Same State NG 1)	–	29.6	–	–	–	–
UUGCUCGUGUGAGGAUAUGCCGCCGUUUCGGCUGCAGAAGGUACUGUAAUACAUGAGGAUCACCCAUGUCUCUGUUGUUUCGUG [salish99_SSNG1_r04_934] (Eterna round: R96, puzzle: Same State NG 1)	17.1	16.4	19.3	–	–	–
GCCCAUAGUAUAUGGGUACAAGCUUUUUAACAUGAGGAUCACCCAUGUACUCGUCUUAUGUGCAGUCCGUAGACUGC [JL-shm-2.17 Brourd mod] (puzzle: Sensor for hsa-mir-208a)	–	–	–	86.4	14	82.3
GGUGCAAUUAACGCCUACAUGAGGAUCACCCAUGUAUGUAGGCAGGAUAUCGUUUGCAAAGCAAACGAGAAGGGCUAUAGUACC [Mat - Same State NG 3 - JL Mod - D43] (Eterna round: R96, puzzle: Same State NG 3)	66.9	256	188	–	–	–
GUGGCGGGUUGAGGAUAUUGGUUGCCGCUGUUUUACAUGAGGAUCACCCAUGUGGGUUGCGGUUUCGAGAAGGGAGGUUGCUGG [salish99_SSNG2_r04_055] (Eterna round: R96, puzzle: Same State NG 2)	14.2	11.7	17.6	–	–	–
GGUCCAGCCUGAGCUGGACAAGAGCAUGUACAUGAGGAUCACCCAUGUCAUGUACAAGCUUUUUGCUCGUCUUAAAA [JL mod - D87 - 2] (puzzle: Sensor for hsa-mir-208a)	–	–	–	433	14.5	540
AGAAAAGUUUACGAGGAUAUGUUCCGCAUAACAUGAGGAUCACCCAUGUGAACAAGAAAGGCGACGCAGAAGGCGUGAGCAAAAG [Mat - Same State 2 - Mod of UCT - D98] (puzzle: Same State 2)	–	–	–	38.8	82.1	116
GGUGGGUUACUACCAACACAUGAGGAUCACCCAUGUUUUGGGAAGGAUAUGGUACCUAUUUGGUACCAGAAGGUCCAGUUGGUG [salish99_SSNG3_r04_703] (Eterna round: R96, puzzle: Same State NG 3)	49.8	79.8	125	–	–	–
GGAAUCUCCAGAGAGGAUAUGCGGCGUUAAACAUGAGGAUCACCCAUGUCCUUCGAAUGGGUAACGCAGAAGGCUCUACGGUUCC [Shapeless] (puzzle: Same State 2)	–	–	–	115	594	1220
GAGGAUGAACUACAGGAUAUAUAGCAGAUGACAUGAGGAUCACCCAUGUAAGAGAAAGGAGGGAGAUAGAAGGGUAUGGGAGGUG [JR_SS2_Sub037] (puzzle: Same State 2)	–	–	–	34.4	28.6	27.1
CAGCGCUGUCGAGAGGAUAUGCGGUGAUGGACAUGAGGAUCACCCAUGUUAGCGACAGCAUUACGGUAGAAGGCUUCACAGCUGC [Soteed Omei mod 15] (Eterna round: R96, puzzle: Same State 2)	287	14.4	55.7	–	–	–
UGGAUGGUGAUAGGAUAUACAUGAGGAAUCCUCGUAGAAGGAUCACGACAUGAGGAUCACCCAUGUAGCCGUCCGUAGACGGCU [salish99_SSNG1_r04_004] (Eterna round: R96, puzzle: Same State NG 1)	478	122	711	–	–	–
AACGUGUAGGAAGGAUAUAUUGUUCAAGGGAUUGCAAUCUCUAACAUGAGGAUCACCCAUGUAGAGUAGAAGGUCCACCGCAGG [Eternabot solution 40] (Eterna round: R96, puzzle: Same State NG 2)	14.1	13.5	19.2	–	–	–
UUGAAGAAUUAAGGAUAUCGAGUACAUAUGUUUAACAUGAGGAUCACCCAUGUGGGUUGCGGUAUCGAGAAGGUAAAUUACAAG [JL SSNG2 1.43] (Eterna round: R96, puzzle: Same State NG 2)	45.3	32	53.9	–	–	–
GAAAGAGGAAGCGAGGAUAUCGUGAAGAGUACAUGAGGAUCACCCAUGUUGUAGGUAAAGGUAGGCGAGAAGGCGCAGGAGAAGA [JR_SS2_Sub0102] (puzzle: Same State 2)	–	–	–	23.9	23.7	33.2
AUACAUGAGGAUCACCCAUGUAAUUAAUUAACUUGUAAGAUCAAGGAUAUCAGCUCGAUUAGAGCUGAGAAGGUGAUCACAUGU [SSNG3/21-C2] (Eterna round: R96, puzzle: Same State NG 3)	–	116	–	–	–	–
GUUAAACAUGAGGAUCACCCAUGUCAAUGUAGUCGAGGAUAUGGGCAGCUAUGAGGCGUACUAGAAGGCGAUGAGU [Mat - Same State 1 - Mod of JL - D14] (puzzle: Same State 1)	–	–	–	38.6	133	150
GCGAGGAUAUGGAGAGGAUCACCCUCUAGAAGGCGCGAAGGCGAGGAUAUGGAGAGGAUCACCCUCUAGAAGGCGCACUUCUCU [pwkr ssNG3 DX 2xF5 +2xFMN.5] (Eterna round: R96, puzzle: Same State NG 3)	222	162	235	–	–	–
GUUACAUGAGGAUCACCCAUGUAUGUGUGGGAGUAAGUGUCUUAGGAUAUCUAUUAUUUAAUUGAAGAGAAGGAAGAUUGUUGU [JMF's solution 26] (Eterna round: R96, puzzle: Same State NG 3)	160	95	112	–	–	–
GGUUUAGUCAGGUGCAGUUGCACCUGAAAACAUGAGGAUCACCCAUGUUUGGGACAAGCUUUGCUCCUCGUCUUGCA [Orinen] (puzzle: Sensor for hsa-mir-208a)	–	–	–	341	70.6	545
AAAUAAAACACAGGAUAUGCAGUCAAAACGACGGCAGAAGGGUGAGACAUGAGGAUCACCCAUGUACACAUCCCACGGAUGUGC [Anonised] (Eterna round: R96, puzzle: Same State NG 1)	1060	546	1060	–	–	–
GGUAGGUUACUACCAACACAUGAGGAUCACCCAUGUUUUGGGAAGGAUAUGGUACCUAUUUGGUACCAGAAGGUCCAGUUAAUG [salish99_SSNG3_r04_701] (Eterna round: R96, puzzle: Same State NG 3)	87	161	122	–	–	–
GUUAUACAUGAGGAUCACCCAUGUCAAUGUAGUCGAGGAUAUGGGCAGCUAUGAGGCGUACUAGAAGGCGAAGAGG [JL-ss1-3.11 ViennaUCT mod] (puzzle: Same State 1)	–	–	–	81.6	234	197
GUAGCAUACCGAGGAUAUUCAUAUUAUACAUGAGGAUCACCCAUGUUAGGCCGAUUACGGCCUUGGGAGAAGGCGGAAUGCUAC [Xeonanis - 20 Mod20] (Eterna round: R96, puzzle: Same State NG 2)	21.8	53.3	75	–	–	–
